Source: the supplement of paper PMC9233669
This sample holds only a part of the variants without activity.

Key:
biotinyl-Leu-oxazolone = experiment: self-aminoacylation, catalytic enhancement (BLO) (fold over background); higher = more active; k-Seq, kA / k0A0; sequences stand for … in GGGAAUGGAUCCACAUCUACGAAUUC…UUCACUGCAGACUUGACGAAGCUG
In short: (§1)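 Catalytic enhancement equals the median kA over the uncatalyzed rate, the latter read from the low-activity peak of a bimodal Gaussian fit. Values of kA came from fitting each sequence's fraction reacted to a pseudo-first-order model, with 1000 bootstraps. Reacted RNA was captured with streptavidin and quantified by triplicate qPCR and Illumina sequencing after 90 minutes at room temperature with 2–1250 μM biotinyl-aminoacyl-oxazolone and 0.43 μM mutagenized RNA pools bearing a 21-nt variable region.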

biotinyl-Met-oxazolone = experiment: self-aminoacylation, catalytic enhancement (BMO) (fold over background); higher = more active; k-Seq, kA / k0A0; sequences stand for … in GGGAAUGGAUCCACAUCUACGAAUUC…UUCACUGCAGACUUGACGAAGCUG
In short: as §1

biotinyl-Ile-oxazolone = experiment: self-aminoacylation, catalytic enhancement (BIO) (fold over background); higher = more active; k-Seq, kA / k0A0; sequences stand for … in GGGAAUGGAUCCACAUCUACGAAUUC…UUCACUGCAGACUUGACGAAGCUG
In short: as §1

biotinyl-Trp-oxazolone = experiment: self-aminoacylation, catalytic enhancement (BWO) (fold over background); higher = more active; k-Seq, kA / k0A0; sequences stand for … in GGGAAUGGAUCCACAUCUACGAAUUC…UUCACUGCAGACUUGACGAAGCUG
In short: as §1

biotinyl-Phe-oxazolone = experiment: self-aminoacylation, catalytic enhancement (BFO) (fold over background); higher = more active; k-Seq, kA / k0A0; sequences stand for … in GGGAAUGGAUCCACAUCUACGAAUUC…UUCACUGCAGACUUGACGAAGCUG
In short: as §1

biotinyl-Val-oxazolone = experiment: self-aminoacylation, catalytic enhancement (BVO) (fold over background); higher = more active; k-Seq, kA / k0A0; sequences stand for … in GGGAAUGGAUCCACAUCUACGAAUUC…UUCACUGCAGACUUGACGAAGCUG
In short: as §1

Row | Sequence | self-aminoacylation (biotinyl-Leu-oxazolone) | self-aminoacylation (biotinyl-Met-oxazolone) | self-aminoacylation (biotinyl-Ile-oxazolone) | self-aminoacylation (biotinyl-Trp-oxazolone) | self-aminoacylation (biotinyl-Phe-oxazolone) | self-aminoacylation (biotinyl-Val-oxazolone)
1 | CCACACGUCAAGCAAUCGGUC [Fam1B.1 aminoacylation ribozyme variant] | 1.17 | 1.16 | 1.11 | 1.16 | 0.848 | 1.65
2 | AAGUUUGCGAAUAGUCGCCAG [Fam3.1 aminoacylation ribozyme variant] | 1.29 | 1.8 | 1.74 | 1.62 | 9.03 | 1.78
3 | AUUACCCGGGUCAUCAAGUGA [Fam2.1 aminoacylation ribozyme variant] | 2.35 | 2.59 | 1.77 | 2.93 | 5.43 | 2.08
4 | AUUCUCCUAGUUCAUCGGGUG [Fam2.2 aminoacylation ribozyme variant] | 5.88 | 4.59 | 3.84 | 5.28 | 32.7 | 3.46
5 | CUACUUCACACAAACGGUCUG [Fam1A.1 aminoacylation ribozyme variant] | 0.746 | 0.626 | 0.771 | 0.616 | 1.07 | 0.746
6 | CUAUUUCAAACACUCGGUCUG [Fam1A.1 aminoacylation ribozyme variant] | 0.875 | 0.95 | 0.995 | 0.925 | 1.36 | 0.921
7 | AAGUUUGCUAAUAUGCGCAAG [Fam3.1 aminoacylation ribozyme variant] | 0.843 | 0.89 | 0.847 | 1.2 | 1.34 | 0.61
8 | CCACAGUUUAAGCAAUCGGUC [Fam1B.1 aminoacylation ribozyme variant] | 0.786 | 0.857 | 0.82 | 0.708 | 0.825 | 0.758
9 | AUUCGCCUCGGUCAUCGGGUG [Fam2.2 aminoacylation ribozyme variant] | 10.9 | 8.96 | 5.14 | 8.94 | 56.3 | 6.21
10 | CUUCACCUAGGUGAUCGGGUG [Fam2.2 aminoacylation ribozyme variant] | 4.03 | 3.91 | 3.56 | 4.93 | 20.6 | 3.9
11 | AUUACCCUGGUGAUCGAGUAA [Fam2.1 aminoacylation ribozyme variant] | 1.21 | 1.54 | 1.24 | 2.15 | 0.541 | 1.23
12 | AUUACCCUGGUCUUUGAGUGA [Fam2.1 aminoacylation ribozyme variant] | 8.33 | 7.29 | 4.05 | 9.67 | 41.8 | 4.17
13 | CCACAUGUCAAGCAAUCGGUC [Fam1B.1 aminoacylation ribozyme variant] | 1.27 | 1.13 | 1.22 | 0.915 | 1.08 | 1.33
14 | AUUCGCCUAUGUCAUCGGGUG [Fam2.2 aminoacylation ribozyme variant] | 6.54 | 5.1 | 3.35 | 4.65 | 30.7 | 3.16
15 | CCACGCUUCAAGCAAUCGCUC [Fam1B.1 aminoacylation ribozyme variant] | 0.929 | 0.927 | 0.955 | 1.13 | 0.605 | 1.42
16 | AAGUAUGCAAAUAGUCGCAAG [Fam3.1 aminoacylation ribozyme variant] | 1.02 | 1.06 | 1.17 | 1.76 | 1.55 | 1.05
17 | AAGUUUGCUAAUAGUAGCAGG [Fam3.1 aminoacylation ribozyme variant] | 1.08 | 1.16 | 1.08 | 0.837 | 1.71 | 0.985
18 | AAUUUUGCUAAUAGUUGCAAG [Fam3.1 aminoacylation ribozyme variant] | 1.63 | 1.54 | 1.73 | 1.75 | 2.06 | 1.53
19 | CCAUACUUCAAGCAAUCUGUC [Fam1B.1 aminoacylation ribozyme variant] | 0.384 | 0.439 | 0.536 | 0.251 | 0.503 | 0.555
20 | AUUCACCUUGGUCAUCGCGUG [Fam2.2 aminoacylation ribozyme variant] | 18.2 | 15.3 | 8.37 | 14.1 | 117 | 8.42
21 | CUACUUCAAAGAAUCGGUCAG [Fam1A.1 aminoacylation ribozyme variant] | 0.601 | 0.574 | 0.652 | 0.818 | 1.48 | 0.658
22 | AUUAGCGUGGUCAUCGAGUGA [Fam2.1 aminoacylation ribozyme variant] | 4.67 | 3.55 | 2.8 | 5 | 13.5 | 3.1
23 | CUACUUCAAACAAACUGUCUG [Fam1A.1 aminoacylation ribozyme variant] | 0.547 | 0.562 | 0.684 | 0.5 | 0.742 | 0.717
24 | AAGUUCGCUAAUAGUCGCGAG [Fam3.1 aminoacylation ribozyme variant] | 2.18 | 2.09 | 3.31 | 4 | 15.2 | 2.51
25 | CUACUUCAAACAAUGGGUGUG [Fam1A.1 aminoacylation ribozyme variant] | 1.34 | 1.32 | 1.29 | 0.947 | 0.967 | 1.08
26 | AUUAGCCUGGUCAGCGAGUGA [Fam2.1 aminoacylation ribozyme variant] | 5.47 | 3.65 | 3.09 | 4.85 | 9.96 | 3.39
